B1: NRC3_wobSeed30_DR1_G7T_o1 (dsDNA)
DNA 1: GCACTATCAGGCCAAGGGTCACTCAAGATTAGTCCGGCGATTGACAGCGTAGAATGAAGG
DNA 2: CCTTCATTCTACGCTGTCAATCGCCGGACTAATCTTGAGTGACCCTTGGCCTGATAGTGC
B2: NRC3_wobSeed101_DR4_C18T_o1 (dsDNA)
DNA 1: GCCCTTACGGGTCACTCTAGGTTATAGCATCGGAGTGCGATTGACAGCGTAGAATGAAGG
DNA 2: CCTTCATTCTACGCTGTCAATCGCACTCCGATGCTATAACCTAGAGTGACCCGTAAGGGC
B3: NRC3_wobSeed45_DR1_A8G_o1 (dsDNA)
DNA 1: GCTGTCAGAGTTCAAAGGTAACGTAAGTATCCACACGCGATTGACAGCGTAGAATGAAGG
DNA 2: CCTTCATTCTACGCTGTCAATCGCGTGTGGATACTTACGTTACCTTTGAACTCTGACAGC
B4: NRC3_wobSeed37_DR1_C7T_o1 (dsDNA)
DNA 1: GCCGTCTAAGGTCAAAGGTCAGTGAAGAGATGACGGGCGATTGACAGCGTAGAATGAAGG
DNA 2: CCTTCATTCTACGCTGTCAATCGCCCGTCATCTCTTCACTGACCTTTGACCTTAGACGGC
B5: NRC3_wobSeed66_DR2_A17G_o1 (dsDNA)
DNA 1: GCAATACAGGGTCACTGGGCCAGAGTAGGTACGAATGCGATTGACAGCGTAGAATGAAGG
DNA 2: CCTTCATTCTACGCTGTCAATCGCATTCGTACCTACTCTGGCCCAGTGACCCTGTATTGC
B6: NRC3_wobSeed66_DR2_A17T_o1 (dsDNA)
DNA 1: GCAATACAGGGTCACTTGGCCAGAGTAGGTACGAATGCGATTGACAGCGTAGAATGAAGG
DNA 2: CCTTCATTCTACGCTGTCAATCGCATTCGTACCTACTCTGGCCAAGTGACCCTGTATTGC
B7: NRC3_wobSeed66_DR2_A27G_o1 (dsDNA)
DNA 1: GCAATACAGGGTCACTAGGCCAGAGTGGGTACGAATGCGATTGACAGCGTAGAATGAAGG
DNA 2: CCTTCATTCTACGCTGTCAATCGCATTCGTACCCACTCTGGCCTAGTGACCCTGTATTGC
B8: NRC3_wobSeed66_DR2_C15T_o1 (dsDNA)
DNA 1: GCAATACAGGGTCATTAGGCCAGAGTAGGTACGAATGCGATTGACAGCGTAGAATGAAGG
DNA 2: CCTTCATTCTACGCTGTCAATCGCATTCGTACCTACTCTGGCCTAATGACCCTGTATTGC
B9: NRC3_wobSeed113_DR4_T8G_o1 (dsDNA)
DNA 1: GCATATGGAGGTTAGCTGGGGTCATTCAGACTAGGCGCGATTGACAGCGTAGAATGAAGG
DNA 2: CCTTCATTCTACGCTGTCAATCGCGCCTAGTCTGAATGACCCCAGCTAACCTCCATATGC
B10: NRC3_wobSeed50_DR2_C25T_o1 (dsDNA)
DNA 1: GCCCTAGTTGGTCAGGAGGTCACATACCGGATATGAGCGATTGACAGCGTAGAATGAAGG
DNA 2: CCTTCATTCTACGCTGTCAATCGCTCATATCCGGTATGTGACCTCCTGACCAACTAGGGC
B11: NRC3_wobSeed112_DR4_T8A_o1 (dsDNA)
DNA 1: GCTAGCCAAGGTCAGATCGGGCCAGTATACGCTATAGCGATTGACAGCGTAGAATGAAGG
DNA 2: CCTTCATTCTACGCTGTCAATCGCTATAGCGTATACTGGCCCGATCTGACCTTGGCTAGC
B12: NRC3_wobSeed58_DR2_G23C_o1 (dsDNA)
DNA 1: GCATCGAAAGGTCGTGAGGTGACTATACAGAAAGGCGCGATTGACAGCGTAGAATGAAGG
DNA 2: CCTTCATTCTACGCTGTCAATCGCGCCTTTCTGTATAGTCACCTCACGACCTTTCGATGC
B13: NRC3_wobSeed142_DR5_G22T_o1 (dsDNA)
DNA 1: GCATACCAAGGTGATCGTGAGTTCGTTGATACTAACGCGATTGACAGCGTAGAATGAAGG
DNA 2: CCTTCATTCTACGCTGTCAATCGCGTTAGTATCAACGAACTCACGATCACCTTGGTATGC
B14: NRC3_wobSeed137_DR5_A5G_o1 (dsDNA)
DNA 1: GCATGTGTAGGTTACATCCGGGTCATTCAGGCTATGGCGATTGACAGCGTAGAATGAAGG
DNA 2: CCTTCATTCTACGCTGTCAATCGCCATAGCCTGAATGACCCGGATGTAACCTACACATGC
B15: NRC3_wobSeed137_DR5_T6C_o1 (dsDNA)
DNA 1: GCATACGTAGGTTACATCCGGGTCATTCAGGCTATGGCGATTGACAGCGTAGAATGAAGG
DNA 2: CCTTCATTCTACGCTGTCAATCGCCATAGCCTGAATGACCCGGATGTAACCTACGTATGC
B16: NRC3_wobSeed5_DR0_C4T_o1 (dsDNA)
DNA 1: GCCTTTACGGGTCAAGGTTATAGCACGGGTGGTACGGCGATTGACAGCGTAGAATGAAGG
DNA 2: CCTTCATTCTACGCTGTCAATCGCCGTACCACCCGTGCTATAACCTTGACCCGTAAAGGC
B17: NRC3_wobSeed5_DR0_A22C_o1 (dsDNA)
DNA 1: GCCCTTACGGGTCAAGGTTATCGCACGGGTGGTACGGCGATTGACAGCGTAGAATGAAGG
DNA 2: CCTTCATTCTACGCTGTCAATCGCCGTACCACCCGTGCGATAACCTTGACCCGTAAGGGC
B18: NRC3_wobSeed5_DR0_G9A_o1 (dsDNA)
DNA 1: GCCCTTACAGGTCAAGGTTATAGCACGGGTGGTACGGCGATTGACAGCGTAGAATGAAGG
DNA 2: CCTTCATTCTACGCTGTCAATCGCCGTACCACCCGTGCTATAACCTTGACCTGTAAGGGC
B19: NRC3_wobSeed5_DR0_T5G_o1 (dsDNA)
DNA 1: GCCCGTACGGGTCAAGGTTATAGCACGGGTGGTACGGCGATTGACAGCGTAGAATGAAGG
DNA 2: CCTTCATTCTACGCTGTCAATCGCCGTACCACCCGTGCTATAACCTTGACCCGTACGGGC
B20: NRC3_wobSeed89_DR3_G16T_o1 (dsDNA)
DNA 1: GCCTATGTAGGTTAATGGGGTCATTCAGTTTGAAAGGCGATTGACAGCGTAGAATGAAGG
DNA 2: CCTTCATTCTACGCTGTCAATCGCCTTTCAAACTGAATGACCCCATTAACCTACATAGGC
B21: NRC3_wobSeed61_DR2_T5C_o1 (dsDNA)
DNA 1: GCCGCCCAAGGTCAGCAGGTCAGTGAAAGCGACGTGGCGATTGACAGCGTAGAATGAAGG
DNA 2: CCTTCATTCTACGCTGTCAATCGCCACGTCGCTTTCACTGACCTGCTGACCTTGGGCGGC
B22: NRC3_wobSeed106_DR4_G23C_o1 (dsDNA)
DNA 1: GCCTCGAAAGGTCGGTTGAGGTCAGTATACGGATAAGCGATTGACAGCGTAGAATGAAGG
DNA 2: CCTTCATTCTACGCTGTCAATCGCTTATCCGTATACTGACCTCAACCGACCTTTCGAGGC
B23: NRC3_wobSeed106_DR4_G6C_o1 (dsDNA)
DNA 1: GCCTCCAAAGGTCGGTTGAGGTGAGTATACGGATAAGCGATTGACAGCGTAGAATGAAGG
DNA 2: CCTTCATTCTACGCTGTCAATCGCTTATCCGTATACTCACCTCAACCGACCTTTGGAGGC
B24: NRC3_wobSeed140_DR5_A22G_o1 (dsDNA)
DNA 1: GCAGAATGAGGTTATACGTAGGTCAGGGAAGAAAGTGCGATTGACAGCGTAGAATGAAGG
DNA 2: CCTTCATTCTACGCTGTCAATCGCACTTTCTTCCCTGACCTACGTATAACCTCATTCTGC
B25: NRC3_wobSeed138_DR5_C7A_o1 (dsDNA)
DNA 1: GCGATAAAGGGTCAGCTAGAGGCCAGAGTATGGAAAGCGATTGACAGCGTAGAATGAAGG
DNA 2: CCTTCATTCTACGCTGTCAATCGCTTTCCATACTCTGGCCTCTAGCTGACCCTTTATCGC
B26: NRC3_wobSeed138_DR5_G9A_o1 (dsDNA)
DNA 1: GCGATACAAGGTCAGCTAGAGGCCAGAGTATGGAAAGCGATTGACAGCGTAGAATGAAGG
DNA 2: CCTTCATTCTACGCTGTCAATCGCTTTCCATACTCTGGCCTCTAGCTGACCTTGTATCGC
B27: NRC3_wobSeed25_DR1_A6G_o1 (dsDNA)
DNA 1: GCCAAGCTAGGTCAAAGGTCAAAGTCGAGCCAACCAGCGATTGACAGCGTAGAATGAAGG
DNA 2: CCTTCATTCTACGCTGTCAATCGCTGGTTGGCTCGACTTTGACCTTTGACCTAGCTTGGC
B28: NRC3_wobSeed119_DR4_o1 (dsDNA)
DNA 1: GCGGAACGAGGGCATTCGAGTTGATAGCATGGCGATGCGATTGACAGCGTAGAATGAAGG
DNA 2: CCTTCATTCTACGCTGTCAATCGCATCGCCATGCTATCAACTCGAATGCCCTCGTTCCGC
B29: NRC3_wobSeed13_DR0_T18G_o1 (dsDNA)
DNA 1: GCCGTCCAAGGTCAAGGGCAGTGAAAGAGACTCGAAGCGATTGACAGCGTAGAATGAAGG
DNA 2: CCTTCATTCTACGCTGTCAATCGCTTCGAGTCTCTTTCACTGCCCTTGACCTTGGACGGC
B30: NRC3_wobSeed21_DR0_A7T_o1 (dsDNA)
DNA 1: GCCGTCTAAGTTCAAGGTAACGTAACAGAAAGCAGCGCGATTGACAGCGTAGAATGAAGG
DNA 2: CCTTCATTCTACGCTGTCAATCGCGCTGCTTTCTGTTACGTTACCTTGAACTTAGACGGC
B31: NRC3_wobSeed82_DR3_A15T_o1 (dsDNA)
DNA 1: GCATCGAAAGGTCGTCGAGGTGAGTATACACCGTTTGCGATTGACAGCGTAGAATGAAGG
DNA 2: CCTTCATTCTACGCTGTCAATCGCAAACGGTGTATACTCACCTCGACGACCTTTCGATGC
B32: NRC3_wobSeed130_DR5_T29C_o1 (dsDNA)
DNA 1: GCCTCGAAAGGTCGTGCTCAGGTGAGTACACCAAACGCGATTGACAGCGTAGAATGAAGG
DNA 2: CCTTCATTCTACGCTGTCAATCGCGTTTGGTGTACTCACCTGAGCACGACCTTTCGAGGC
B33: NRC3_wobSeed130_DR5_C19T_o1 (dsDNA)
DNA 1: GCCTCGAAAGGTCGTGCTTAGGTGAGTATACCAAACGCGATTGACAGCGTAGAATGAAGG
DNA 2: CCTTCATTCTACGCTGTCAATCGCGTTTGGTATACTCACCTAAGCACGACCTTTCGAGGC

Target: PXR:RXRa (Homo sapiens, UniProt O75469;P19793 full;full)
Test: no ligand; PBM; 270 nM : 90 nM RXRa; PBS pH 7.4, 2% milk, 0.02% Triton X-100, 1 mM DTT, BSA, 0.4 mg/ml salmon testes DNA
Conditions: tags: His kept;His cleaved; copies: 1;1; label: surface-attached array probe
In short: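 Antibodies against each partner of ligand-free nuclear receptor dimers (one per run) detected binding on custom Agilent 4×180K protein-binding microarrays after 1 h incubation. The double-stranded probes had 34-nt variable regions carrying direct-repeat seeds, single-nucleotide variants, half-site ablations and random human genomic background sequences. Binding z-scores, from regression-normalized fluorescence, use the random background probes as reference.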

PXR:RXRa, sequence (O75469 whole entry, chain 1 of 2): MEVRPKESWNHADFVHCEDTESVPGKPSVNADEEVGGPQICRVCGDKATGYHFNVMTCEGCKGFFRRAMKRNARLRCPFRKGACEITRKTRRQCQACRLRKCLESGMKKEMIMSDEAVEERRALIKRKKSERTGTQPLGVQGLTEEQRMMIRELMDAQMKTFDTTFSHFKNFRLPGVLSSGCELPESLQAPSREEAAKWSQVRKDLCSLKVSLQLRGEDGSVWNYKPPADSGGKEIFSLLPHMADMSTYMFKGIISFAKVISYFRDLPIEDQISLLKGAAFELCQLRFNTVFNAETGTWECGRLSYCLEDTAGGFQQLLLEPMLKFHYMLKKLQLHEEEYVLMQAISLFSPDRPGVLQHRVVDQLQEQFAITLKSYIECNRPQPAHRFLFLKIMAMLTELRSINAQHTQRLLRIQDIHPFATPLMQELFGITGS
PXR:RXRa, sequence (P19793 whole entry, chain 2 of 2): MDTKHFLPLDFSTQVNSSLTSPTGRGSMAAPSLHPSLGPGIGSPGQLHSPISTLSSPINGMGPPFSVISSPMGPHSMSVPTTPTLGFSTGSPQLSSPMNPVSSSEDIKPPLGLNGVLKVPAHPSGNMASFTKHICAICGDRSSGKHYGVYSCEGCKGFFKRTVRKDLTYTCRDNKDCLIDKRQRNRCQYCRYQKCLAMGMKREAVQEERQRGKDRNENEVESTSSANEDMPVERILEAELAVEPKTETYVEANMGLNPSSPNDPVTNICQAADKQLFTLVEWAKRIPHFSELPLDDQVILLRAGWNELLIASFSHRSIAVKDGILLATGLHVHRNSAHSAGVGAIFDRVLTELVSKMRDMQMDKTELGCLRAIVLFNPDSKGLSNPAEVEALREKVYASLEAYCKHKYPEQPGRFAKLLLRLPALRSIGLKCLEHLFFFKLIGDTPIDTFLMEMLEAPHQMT

Going from B1 to B2, the binding signal rises from 3.31 PBM z-score against 500 random probes to 3.67 PBM z-score against 500 random probes.

First: B3
Second: B4
The binding signal of the first is lower: 6.41 PBM z-score against 500 random probes for the first, 7.41 PBM z-score against 500 random probes for the second.

Going from B5 to B6, the binding signal falls from 3.74 PBM z-score against 500 random probes to 3.45 PBM z-score against 500 random probes.

Compared with B7, B8 is higher in binding signal: 3.32 PBM z-score against 500 random probes for the first, 3.57 PBM z-score against 500 random probes for the second.

First: B9
Second: B10
The binding signal of the first is higher: 6.8 PBM z-score against 500 random probes for the first, 3.69 PBM z-score against 500 random probes for the second.

Compared with B11, B12 is higher in binding signal: 3.44 PBM z-score against 500 random probes for the first, 3.52 PBM z-score against 500 random probes for the second.

Going from B13 to B14, the binding signal rises from 3.5 PBM z-score against 500 random probes to 3.72 PBM z-score against 500 random probes.

First: B15
Second: B16
The binding signal of the first is lower: 3.61 PBM z-score against 500 random probes for the first, 3.7 PBM z-score against 500 random probes for the second.

First: B17
Second: B18
The binding signal of the first is lower: 3.55 PBM z-score against 500 random probes for the first, 3.62 PBM z-score against 500 random probes for the second.

Going from B19 to B20, the binding signal rises from 3.48 PBM z-score against 500 random probes to 6.66 PBM z-score against 500 random probes.

First: B21
Second: B22
The binding signal of the first is lower: 3.73 PBM z-score against 500 random probes for the first, 6.52 PBM z-score against 500 random probes for the second.

Going from B23 to B24, the binding signal falls from 3.35 PBM z-score against 500 random probes to 3.29 PBM z-score against 500 random probes.

Going from B25 to B26, the binding signal falls from 3.54 PBM z-score against 500 random probes to 3.38 PBM z-score against 500 random probes.

Compared with B27, B28 is lower in binding signal: 7.42 PBM z-score against 500 random probes for the first, 3.4 PBM z-score against 500 random probes for the second.

Compared with B29, B30 is higher in binding signal: 3.34 PBM z-score against 500 random probes for the first, 3.59 PBM z-score against 500 random probes for the second.

Going from B31 to B32, the binding signal rises from 3.66 PBM z-score against 500 random probes to 3.76 PBM z-score against 500 random probes.

For B33, the binding signal was 3.37 PBM z-score against 500 random probes.

— paper PMC6555819, “Comprehensive study of nuclear receptor DNA binding provides a revised framework for understanding receptor specificity”
